Values quoted from earlier work, collected in patent publication US12194157B2, “Carrier for targeted delivery to a host” (Finncure Oy, priority 2020, dated 2025).

Target: ACE2 (Homo sapiens, UniProt Q9BYF1)
Details: simulation, ref [8]

Sequence of ACE2 (Q9BYF1 18-805): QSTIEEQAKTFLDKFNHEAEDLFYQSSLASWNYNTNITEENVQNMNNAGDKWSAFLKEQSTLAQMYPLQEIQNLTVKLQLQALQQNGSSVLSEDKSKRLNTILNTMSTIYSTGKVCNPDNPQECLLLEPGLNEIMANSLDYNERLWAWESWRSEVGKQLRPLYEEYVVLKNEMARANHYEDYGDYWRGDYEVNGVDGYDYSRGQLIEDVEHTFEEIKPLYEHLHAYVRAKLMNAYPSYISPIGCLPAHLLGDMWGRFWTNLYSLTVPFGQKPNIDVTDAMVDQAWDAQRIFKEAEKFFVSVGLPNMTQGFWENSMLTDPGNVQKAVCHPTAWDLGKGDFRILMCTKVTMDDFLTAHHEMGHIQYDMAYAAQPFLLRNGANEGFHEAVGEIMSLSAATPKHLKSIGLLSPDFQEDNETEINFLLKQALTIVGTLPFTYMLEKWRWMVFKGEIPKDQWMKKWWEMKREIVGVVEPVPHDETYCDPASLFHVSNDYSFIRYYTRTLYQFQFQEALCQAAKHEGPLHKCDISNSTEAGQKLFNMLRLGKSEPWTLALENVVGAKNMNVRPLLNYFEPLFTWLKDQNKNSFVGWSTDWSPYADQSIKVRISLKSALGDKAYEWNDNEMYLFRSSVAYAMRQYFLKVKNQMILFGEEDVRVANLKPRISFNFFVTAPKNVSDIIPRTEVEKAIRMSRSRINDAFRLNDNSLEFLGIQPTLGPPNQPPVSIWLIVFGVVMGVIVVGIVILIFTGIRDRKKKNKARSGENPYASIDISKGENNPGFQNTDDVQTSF

| Substance | binding affinity towards the ACE2 receptor relative to YKYRYL |
| --- | --- |
| YKYNYL (Potential alternative synthetic hexapeptide variant) [alternative synthetic hexapeptide variant from simulation] | even stronger binding affinity |
| YKYNYI (Potential alternative synthetic hexapeptide variant) [alternative synthetic hexapeptide variant from simulation] | even stronger binding affinity |
